Test results reported in IntAct's records for PubMed 19804756.

Tests used:
nbs1_schpo nbs1 = nbs1_schpo nbs1 (UniProt O43070)
nbn_human NBN = nbn_human NBN (UniProt O60934)
nbn_human NBN, sequence (O60934 whole entry): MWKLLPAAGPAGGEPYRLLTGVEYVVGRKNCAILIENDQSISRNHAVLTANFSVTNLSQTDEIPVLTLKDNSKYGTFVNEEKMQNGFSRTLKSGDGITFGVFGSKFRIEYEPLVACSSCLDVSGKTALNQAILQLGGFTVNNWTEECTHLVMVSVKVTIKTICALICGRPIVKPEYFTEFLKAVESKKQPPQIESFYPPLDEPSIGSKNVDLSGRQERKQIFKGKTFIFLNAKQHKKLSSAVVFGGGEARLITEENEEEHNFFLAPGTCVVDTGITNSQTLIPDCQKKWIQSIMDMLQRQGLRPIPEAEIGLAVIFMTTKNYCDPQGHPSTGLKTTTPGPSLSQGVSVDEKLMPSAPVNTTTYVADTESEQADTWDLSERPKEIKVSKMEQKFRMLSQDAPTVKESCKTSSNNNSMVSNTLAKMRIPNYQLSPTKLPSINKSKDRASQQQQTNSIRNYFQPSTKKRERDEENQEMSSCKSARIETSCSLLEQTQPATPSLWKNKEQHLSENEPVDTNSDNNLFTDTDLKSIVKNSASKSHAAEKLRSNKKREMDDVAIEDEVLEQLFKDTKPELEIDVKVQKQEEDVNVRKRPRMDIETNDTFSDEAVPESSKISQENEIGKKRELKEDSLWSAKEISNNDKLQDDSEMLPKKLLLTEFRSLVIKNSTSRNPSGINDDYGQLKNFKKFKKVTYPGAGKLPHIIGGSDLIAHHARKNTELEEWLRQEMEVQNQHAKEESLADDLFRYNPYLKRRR

nbs1_schpo nbs1, sequence (O43070 whole entry): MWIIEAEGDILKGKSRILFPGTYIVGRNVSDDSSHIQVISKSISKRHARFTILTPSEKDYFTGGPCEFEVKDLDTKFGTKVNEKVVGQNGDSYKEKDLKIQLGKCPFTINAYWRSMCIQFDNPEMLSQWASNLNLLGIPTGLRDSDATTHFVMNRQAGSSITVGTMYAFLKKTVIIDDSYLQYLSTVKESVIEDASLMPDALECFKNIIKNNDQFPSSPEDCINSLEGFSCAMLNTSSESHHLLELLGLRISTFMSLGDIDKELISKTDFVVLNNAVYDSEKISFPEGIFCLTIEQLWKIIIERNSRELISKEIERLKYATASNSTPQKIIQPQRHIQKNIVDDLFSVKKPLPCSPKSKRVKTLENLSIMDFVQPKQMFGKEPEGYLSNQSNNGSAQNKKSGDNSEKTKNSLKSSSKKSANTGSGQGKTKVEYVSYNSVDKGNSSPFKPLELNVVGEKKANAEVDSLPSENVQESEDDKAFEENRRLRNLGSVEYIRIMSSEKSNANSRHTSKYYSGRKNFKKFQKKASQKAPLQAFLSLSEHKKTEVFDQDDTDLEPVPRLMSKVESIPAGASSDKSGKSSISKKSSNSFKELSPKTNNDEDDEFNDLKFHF

Substance	effect of a mutation on the interaction (nbs1_schpo nbs1)	effect of a mutation on the interaction (nbn_human NBN)
Mediator of DNA damage checkpoint protein 1 (Homo sapiens), Q14676 E334A	decreasing interaction	
Mediator of DNA damage checkpoint protein 1 (Homo sapiens), Q14676 T331S		decreasing interaction
